Reference: US20240124586A1 (WUXI BIOLOGICS IRELAND, published 2024)
Residue numbers refer to the chain shown, from its start.

B1: T3-Design_7 (IgG1), crossed orientation (antibody)
heavy: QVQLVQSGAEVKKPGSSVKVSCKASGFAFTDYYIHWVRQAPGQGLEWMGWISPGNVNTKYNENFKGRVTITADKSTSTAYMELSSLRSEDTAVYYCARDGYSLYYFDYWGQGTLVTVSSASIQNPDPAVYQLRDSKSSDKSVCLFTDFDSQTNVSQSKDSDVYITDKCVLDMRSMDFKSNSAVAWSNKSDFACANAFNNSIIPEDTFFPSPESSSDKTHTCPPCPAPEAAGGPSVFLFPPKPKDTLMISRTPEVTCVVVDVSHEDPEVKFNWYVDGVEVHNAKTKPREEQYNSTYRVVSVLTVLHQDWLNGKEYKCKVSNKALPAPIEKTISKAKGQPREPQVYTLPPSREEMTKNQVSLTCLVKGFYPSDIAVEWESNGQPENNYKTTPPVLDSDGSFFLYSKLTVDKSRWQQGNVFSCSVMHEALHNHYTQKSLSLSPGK
light: DIVMTQSPDSLAVSLGERATINCKSSQSLLNSRTRKNYLAWYQQKPGQPPKLLIYWASTRQSGVPDRFSGSGSGTDFTLTISSLQAEDVAVYYCTQSHTLRTFGGGTKVEIKLEDLKNVFPPEVAVFEPSEAEISHTQKATLVCLATGFYPDHVELSWWVNGKEVHSGVCTDPQPLKEQPALNDSRYALSSRLRVSATFWQNPRNHFRCQVQFYPSNQIVSAEAWGRA
notes: Monospecific IgG-like TCR chimera; tested as supernatant
B2: T3-Design_8 (IgG1), crossed orientation (antibody)
heavy: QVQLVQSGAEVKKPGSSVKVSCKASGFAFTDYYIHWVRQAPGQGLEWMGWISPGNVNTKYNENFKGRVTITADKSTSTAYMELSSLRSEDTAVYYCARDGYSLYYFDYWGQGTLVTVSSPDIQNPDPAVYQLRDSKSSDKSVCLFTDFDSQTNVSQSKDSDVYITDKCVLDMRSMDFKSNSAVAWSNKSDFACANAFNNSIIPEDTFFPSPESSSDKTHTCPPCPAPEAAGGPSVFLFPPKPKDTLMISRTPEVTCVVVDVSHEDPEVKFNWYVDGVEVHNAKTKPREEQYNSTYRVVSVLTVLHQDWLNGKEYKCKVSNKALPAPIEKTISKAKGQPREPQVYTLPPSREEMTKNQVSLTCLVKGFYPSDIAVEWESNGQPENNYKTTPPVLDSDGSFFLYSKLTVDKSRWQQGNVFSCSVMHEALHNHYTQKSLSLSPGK
light: B1 light
notes: as for B1
B3: T3-Design_3 (IgG1), crossed orientation (antibody)
heavy: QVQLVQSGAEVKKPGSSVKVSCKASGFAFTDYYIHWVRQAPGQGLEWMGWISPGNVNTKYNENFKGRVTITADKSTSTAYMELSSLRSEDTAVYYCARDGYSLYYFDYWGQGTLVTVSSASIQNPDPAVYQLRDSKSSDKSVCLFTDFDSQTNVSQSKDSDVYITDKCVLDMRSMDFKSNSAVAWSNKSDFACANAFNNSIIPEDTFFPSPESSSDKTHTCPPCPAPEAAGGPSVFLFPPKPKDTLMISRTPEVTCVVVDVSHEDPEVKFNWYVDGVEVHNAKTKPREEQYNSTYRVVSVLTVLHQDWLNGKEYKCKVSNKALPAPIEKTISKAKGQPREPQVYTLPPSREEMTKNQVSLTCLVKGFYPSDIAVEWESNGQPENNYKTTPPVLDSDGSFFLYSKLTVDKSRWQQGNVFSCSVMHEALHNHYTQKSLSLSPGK
light: DIVMTQSPDSLAVSLGERATINCKSSQSLLNSRTRKNYLAWYQQKPGQPPKLLIYWASTRQSGVPDRFSGSGSGTDFTLTISSLQAEDVAVYYCTQSHTLRTFGGGTKVEIKLEDLKNVFPPEVAVFEPSEAEISHTQKATLVCLATGFYPDHVELSWWVNGKEVHSGVCTDPQPLKEQPALNDSRYALSSRLRVSATFWQNPRNHFRCQVQFYGLSENDEWTQDRAKPVTQIVSAEAWGRA
notes: as for B1
B4: T3-Design_4 (IgG1), crossed orientation (antibody)
heavy: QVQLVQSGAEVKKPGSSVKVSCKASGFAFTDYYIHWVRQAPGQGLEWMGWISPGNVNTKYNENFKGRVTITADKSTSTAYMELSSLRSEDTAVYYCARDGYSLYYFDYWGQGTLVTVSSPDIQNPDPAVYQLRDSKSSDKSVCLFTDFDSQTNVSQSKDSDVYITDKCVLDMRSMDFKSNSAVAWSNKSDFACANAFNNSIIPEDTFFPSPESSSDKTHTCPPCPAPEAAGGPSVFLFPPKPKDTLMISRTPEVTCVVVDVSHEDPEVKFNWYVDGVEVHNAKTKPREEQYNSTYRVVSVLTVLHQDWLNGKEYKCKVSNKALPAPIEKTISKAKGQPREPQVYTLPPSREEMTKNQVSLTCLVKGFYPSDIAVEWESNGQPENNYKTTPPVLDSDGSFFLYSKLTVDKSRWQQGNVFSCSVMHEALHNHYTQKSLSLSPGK
light: B3 light
notes: as for B1
B5: T3-Design_2 (IgG1), normal orientation (antibody)
heavy: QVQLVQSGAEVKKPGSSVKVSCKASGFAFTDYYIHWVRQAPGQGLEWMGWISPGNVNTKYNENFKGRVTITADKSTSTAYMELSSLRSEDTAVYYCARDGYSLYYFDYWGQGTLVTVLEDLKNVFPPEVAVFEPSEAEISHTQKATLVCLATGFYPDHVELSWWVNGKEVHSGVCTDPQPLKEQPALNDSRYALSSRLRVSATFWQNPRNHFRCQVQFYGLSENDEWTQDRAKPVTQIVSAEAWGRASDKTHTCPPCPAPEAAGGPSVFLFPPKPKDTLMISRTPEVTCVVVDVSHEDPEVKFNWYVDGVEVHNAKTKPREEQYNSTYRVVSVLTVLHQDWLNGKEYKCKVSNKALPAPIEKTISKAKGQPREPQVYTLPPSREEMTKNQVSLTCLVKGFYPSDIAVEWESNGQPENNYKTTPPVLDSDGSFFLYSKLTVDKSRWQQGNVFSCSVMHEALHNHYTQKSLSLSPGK
light: DIVMTQSPDSLAVSLGERATINCKSSQSLLNSRTRKNYLAWYQQKPGQPPKLLIYWASTRQSGVPDRFSGSGSGTDFTLTISSLQAEDVAVYYCTQSHTLRTFGGGTKVEIKPDIQNPDPAVYQLRDSKSSDKSVCLFTDFDSQTNVSQSKDSDVYITDKCVLDMRSMDFKSNSAVAWSNKSDFACANAFNNSIIPEDTFFPSPESS
notes: as for B1
B6: T3-Design_5 (IgG1), normal orientation (antibody)
heavy: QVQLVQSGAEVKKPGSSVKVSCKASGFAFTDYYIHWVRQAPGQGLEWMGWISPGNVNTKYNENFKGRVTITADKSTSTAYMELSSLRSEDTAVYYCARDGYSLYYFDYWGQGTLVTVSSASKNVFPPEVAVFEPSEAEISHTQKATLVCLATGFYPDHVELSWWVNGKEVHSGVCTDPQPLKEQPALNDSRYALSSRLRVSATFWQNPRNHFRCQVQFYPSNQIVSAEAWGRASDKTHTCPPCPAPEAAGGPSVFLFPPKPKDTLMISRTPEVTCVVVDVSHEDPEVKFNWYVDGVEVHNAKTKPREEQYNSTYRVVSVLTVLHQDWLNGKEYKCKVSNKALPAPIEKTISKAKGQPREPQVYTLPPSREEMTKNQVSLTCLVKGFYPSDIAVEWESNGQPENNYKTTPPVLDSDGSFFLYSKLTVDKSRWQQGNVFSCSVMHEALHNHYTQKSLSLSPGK
light: B5 light with P113R, D114T, I115V, Q116A, N117A
notes: as for B1
B7: T3-Design_1 (IgG1), normal orientation (antibody)
heavy: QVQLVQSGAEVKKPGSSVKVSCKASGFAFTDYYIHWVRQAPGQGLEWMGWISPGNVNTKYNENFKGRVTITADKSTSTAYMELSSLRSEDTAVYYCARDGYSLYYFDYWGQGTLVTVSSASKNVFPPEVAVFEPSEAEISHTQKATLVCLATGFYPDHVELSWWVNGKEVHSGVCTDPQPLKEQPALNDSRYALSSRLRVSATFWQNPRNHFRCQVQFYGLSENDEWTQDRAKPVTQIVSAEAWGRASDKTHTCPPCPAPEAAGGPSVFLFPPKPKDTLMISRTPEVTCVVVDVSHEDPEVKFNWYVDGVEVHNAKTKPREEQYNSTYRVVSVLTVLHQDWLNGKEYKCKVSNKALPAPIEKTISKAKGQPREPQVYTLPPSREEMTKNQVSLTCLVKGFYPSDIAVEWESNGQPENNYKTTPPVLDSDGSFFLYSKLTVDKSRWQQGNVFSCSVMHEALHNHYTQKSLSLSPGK
light: B5 light with P113R, D114T, I115V, Q116A, N117A
notes: Monospecific IgG-like chimera of T3 variable domains with TCR CBeta/CAlpha; tested as Expi293 supernatant
B8: T3-Design_6a (IgG1), normal orientation (antibody)
heavy: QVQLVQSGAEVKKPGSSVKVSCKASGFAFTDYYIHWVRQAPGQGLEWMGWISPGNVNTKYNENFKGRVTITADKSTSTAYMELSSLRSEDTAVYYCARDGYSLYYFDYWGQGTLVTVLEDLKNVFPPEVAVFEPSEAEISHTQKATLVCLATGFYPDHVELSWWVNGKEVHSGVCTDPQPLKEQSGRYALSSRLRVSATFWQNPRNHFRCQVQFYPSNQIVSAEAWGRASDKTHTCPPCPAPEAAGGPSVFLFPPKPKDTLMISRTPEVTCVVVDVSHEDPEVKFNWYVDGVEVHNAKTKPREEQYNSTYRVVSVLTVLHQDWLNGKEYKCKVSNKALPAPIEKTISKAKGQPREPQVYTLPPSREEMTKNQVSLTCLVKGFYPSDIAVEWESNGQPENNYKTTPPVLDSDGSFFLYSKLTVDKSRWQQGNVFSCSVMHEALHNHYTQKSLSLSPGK
light: B5 light
notes: as for B1
B9: T3-Design_6 (IgG1), normal orientation (antibody)
heavy: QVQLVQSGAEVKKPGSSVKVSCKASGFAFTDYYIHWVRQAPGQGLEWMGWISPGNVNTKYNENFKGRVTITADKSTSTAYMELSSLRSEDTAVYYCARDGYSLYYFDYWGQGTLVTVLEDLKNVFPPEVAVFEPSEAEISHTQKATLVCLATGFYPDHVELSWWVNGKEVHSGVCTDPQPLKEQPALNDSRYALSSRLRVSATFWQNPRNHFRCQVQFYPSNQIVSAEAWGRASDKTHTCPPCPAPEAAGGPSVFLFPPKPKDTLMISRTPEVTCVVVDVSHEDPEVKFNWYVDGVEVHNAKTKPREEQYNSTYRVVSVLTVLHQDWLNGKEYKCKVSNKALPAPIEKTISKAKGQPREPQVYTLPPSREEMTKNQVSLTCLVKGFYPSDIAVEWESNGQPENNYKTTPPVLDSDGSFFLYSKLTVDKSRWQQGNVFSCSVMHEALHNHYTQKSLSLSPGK
light: B5 light
notes: as for B1

Target: T1, human CD3 on CD3+ Jurkat cells (human, UniProt P07766 23-207; P09693 23-182; P04234 22-171)
T1 construct: whole, on cells; also called CD3 positive Jurkat cells
Experiment: FACS on CD3+ Jurkat cells, supernatant, 5.0 nM
Experimental: (§1) To confirm whether the expressed proteins had correct folding and retained the original function, we tested their binding on CD3 positive Jurkat cells. FACS bindings of all the samples were carried out at three different concentrations: […].

T1 sequence (P07766 23-207, chain 1 of 3): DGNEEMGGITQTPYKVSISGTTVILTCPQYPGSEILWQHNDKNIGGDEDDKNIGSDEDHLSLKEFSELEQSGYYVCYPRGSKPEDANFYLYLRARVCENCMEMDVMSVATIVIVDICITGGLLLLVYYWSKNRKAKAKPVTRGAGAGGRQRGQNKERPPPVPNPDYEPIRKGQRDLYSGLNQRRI
T1 sequence (P09693 23-182, chain 2 of 3): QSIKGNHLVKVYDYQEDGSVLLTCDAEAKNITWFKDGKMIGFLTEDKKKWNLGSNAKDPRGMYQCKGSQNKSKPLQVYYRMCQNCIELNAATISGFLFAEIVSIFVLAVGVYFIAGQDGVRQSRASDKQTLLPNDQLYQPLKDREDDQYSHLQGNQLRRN
T1 sequence (P04234 22-171, chain 3 of 3): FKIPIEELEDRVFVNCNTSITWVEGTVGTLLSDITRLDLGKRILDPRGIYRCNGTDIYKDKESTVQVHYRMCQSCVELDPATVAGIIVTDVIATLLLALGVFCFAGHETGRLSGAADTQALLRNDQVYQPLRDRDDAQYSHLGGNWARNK

| Binder | MFI at 5.0 nM [MFI] |
| --- | --- |
| B1 | 6320 |
| B2 | 6410 |
| B3 | 5090 |
| B4 | 5440 |
| B5 | 5830 |
| B6 | 5390 |
| B7 | 5440 |
| B8 | 5790 |
| B9 | 5790 |

Target: T1, human CD3 on CD3+ Jurkat cells
Experiment: FACS on CD3+ Jurkat cells, supernatant, 0.032 nM
Experimental: as §1

| Binder | MFI at 0.032 nM [MFI] |
| --- | --- |
| B1 | 259 |
| B2 | 243 |
| B3 | 137 |
| B4 | 168 |
| B5 | 380 |
| B6 | 249 |
| B7 | 292 |
| B8 | 405 |
| B9 | 613 |

Target: T1, human CD3 on CD3+ Jurkat cells
Experiment: FACS on CD3+ Jurkat cells, supernatant, 0.4 nM
Experimental: as §1

| Binder | MFI at 0.4 nM [MFI] |
| --- | --- |
| B1 | 1930 |
| B2 | 1830 |
| B3 | 982 |
| B4 | 1210 |
| B5 | 2620 |
| B6 | 1860 |
| B7 | 2190 |
| B8 | 2820 |
| B9 | 3910 |
